Experimental data: patent US20240368277A1 (ORIONIS BIOSCIENCES, published 2024)
Changes are numbered by the printed parent chain.

B1: 2HSI1 (VHH)
VHH: QVQLQESGGGVVQAGDSLRLSCVASGRTFSSLDMGWFRQAPGKEREFVAGISRSGISQYYADSMKGRFTISRDNAKNLVYLQMNSLKPEDTAVYYCAAALTFRGSDLPRDSNYWGQGTQVTVSS
notes: The entry includes the C-terminal AAA linker, HA tag and His6 tag, as expressed from pMECS
B2: 2HSI86 (VHH)
VHH: B1 VHH with V11L, A14P, D16G, V23A, M83I
notes: as for B1
B3: 2HSI110 (VHH)
VHH: B1 VHH with V11L, A14S
notes: as for B1
B4: 2HSI77 (VHH)
VHH: B1 VHH with V11S, D16G
notes: as for B1
B5: 2HSI102 (VHH)
VHH: B1 VHH with T28A
notes: as for B1
B6: 2HSI90 (VHH)
VHH: B1 VHH with G26E
notes: as for B1
B7: 2HSI49 (VHH)
VHH: B1 VHH with A14T
notes: as for B1
B8: 2HSI113 (VHH)
VHH: B1 VHH with V11L
notes: as for B1
B9: 2HSI44 (VHH)
VHH: B1 VHH with V11L, D16G, V23T
notes: as for B1
B10: 2HSI54 (VHH)
VHH: B1 VHH with D62N
notes: as for B1
B11: 2HSI98 (VHH)
VHH: B1 VHH with R19G
notes: as for B1
B12: 2HSI57 (VHH)
VHH: B1 VHH with V11L, D16G, V23A
notes: as for B1
B13: 2HSI24 (VHH)
VHH: B1 VHH with A40T
notes: as for B1
B14: 2HSI32 (VHH)
VHH: B1 VHH with S54T, Q58A, P88S
notes: as for B1
B15: 2HSI31 (VHH)
VHH: B1 VHH with K65R
notes: as for B1
B16: 2HSI3 (VHH)
VHH: B1 VHH with R19K
notes: as for B1
B17: 2HSI68 (VHH)
VHH: B1 VHH with V11W, A14P, D16G, V23E, F29S, S54T, Q58A, P88S
notes: as for B1
B18: 2HSI109 (VHH)
VHH: B1 VHH with V11S, S54T, Q58A, P88S
notes: as for B1
B19: 2HSI40 (VHH)
VHH: B1 VHH with N77S
notes: as for B1
B20: 2HSI89 (VHH)
VHH: B1 VHH with G26E, D106N
notes: as for B1
B21: 2HSI55 (VHH)
VHH: B1 VHH with S17P
notes: as for B1
B22: 2HSI35 (VHH)
VHH: B1 VHH with V11L, A14P, D16G, V23A, R27F, S30G, S31G, L32Y
notes: as for B1
B23: 2HSI88 (VHH)
VHH: B1 VHH with R27H
notes: as for B1
B24: 2HSI105 (VHH)
VHH: B1 VHH with K87R
notes: as for B1
B25: 2HSI80 (VHH)
VHH: B1 VHH with I51V
notes: as for B1
B26: 2HSI22 (VHH)
VHH: QVQLQESGGGLVQPGGSLRLSCAASGLNFRRYTMGWFRQAPGKEREFVGVINWSDDSIYYADSVKGRFAISRDNTKNTVYLQMASLKPEDTAVYYCAASPQWDTRVRQTMRGKYDYWGQGTQVTVSS
notes: as for B1

These binders were tested against T1, His6-tagged recombinant extracellular domain of human signal regulatory protein alpha (hSIRP1α) (human, UniProt P78324 31-373) (assay: ELISA, crude periplasmic extracts on coated His6-tagged hSIRP1α extracellular domain).
T1 construct: extracellular domain; also called antigen; not shown: His6 tag
T1 sequence (P78324 31-373): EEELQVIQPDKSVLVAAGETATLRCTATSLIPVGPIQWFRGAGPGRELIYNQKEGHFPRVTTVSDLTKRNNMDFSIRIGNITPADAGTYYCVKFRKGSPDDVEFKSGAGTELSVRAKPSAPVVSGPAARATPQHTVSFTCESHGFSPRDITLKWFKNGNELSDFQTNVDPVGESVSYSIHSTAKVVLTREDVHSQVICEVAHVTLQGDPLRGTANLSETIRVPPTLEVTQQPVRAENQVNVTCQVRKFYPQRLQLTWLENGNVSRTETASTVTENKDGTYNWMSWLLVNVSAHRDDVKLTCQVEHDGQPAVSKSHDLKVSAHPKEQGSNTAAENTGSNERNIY
Procedure: The VHH library was panned on solid-phase coated antigen (200 μg/ml in 100 mM NaHCO₃, pH 9.3) for 3 rounds. The enrichment for antigen-specific phages was assessed after each round of panning by comparing the number of phagemid particles eluted from antigen-coated wells with the number of phagemid particles eluted from negative control (uncoated blocked) wells. […] There was no enrichment after the 1st panning round. In total, 190 colonies from panning round 2 were randomly selected and analyzed by ELISA for the presence of antigen-specific VHHs in their periplasmic extracts (ELISA using crude periplasmic extracts including soluble VHHs) (see FIG. 5). The antigens used for panning and ELISA screening were the same as the ones used for immunization, using uncoated blocked wells as negative control. […] Based on sequence data of the positive colonies, 27 different full length VHHs were distinguished (see FIGS. 4A, 4B, and 5 and SEQ ID Nos: 300-326).

Binder | binding result
B1 | binds
B2 | binds
B3 | binds
B4 | binds
B5 | binds
B6 | binds
B7 | binds
B8 | binds
B9 | binds
B10 | binds
B11 | binds
B12 | binds
B13 | binds
B14 | binds
B15 | binds
B16 | binds
B17 | binds
B18 | binds
B19 | binds
B20 | binds
B21 | binds
B22 | binds
B23 | binds
B24 | binds
B25 | binds
B26 | binds

The binders below were run against T2, full length human SIRPA expressed on transiently transfected Hek293T cells (pMET7 FLAG-hSIRPA) (human, UniProt P78324 31-504) (assay: FACS, serial dilution of purified VHH on hSIRPA- or empty vector (MOCK)-transfected Hek293T cells; FITC-coupled anti-HA antibody).
T2 construct: whole, on cells; also called human SIRP1α; human SIRPα
T2 sequence (P78324 31-504): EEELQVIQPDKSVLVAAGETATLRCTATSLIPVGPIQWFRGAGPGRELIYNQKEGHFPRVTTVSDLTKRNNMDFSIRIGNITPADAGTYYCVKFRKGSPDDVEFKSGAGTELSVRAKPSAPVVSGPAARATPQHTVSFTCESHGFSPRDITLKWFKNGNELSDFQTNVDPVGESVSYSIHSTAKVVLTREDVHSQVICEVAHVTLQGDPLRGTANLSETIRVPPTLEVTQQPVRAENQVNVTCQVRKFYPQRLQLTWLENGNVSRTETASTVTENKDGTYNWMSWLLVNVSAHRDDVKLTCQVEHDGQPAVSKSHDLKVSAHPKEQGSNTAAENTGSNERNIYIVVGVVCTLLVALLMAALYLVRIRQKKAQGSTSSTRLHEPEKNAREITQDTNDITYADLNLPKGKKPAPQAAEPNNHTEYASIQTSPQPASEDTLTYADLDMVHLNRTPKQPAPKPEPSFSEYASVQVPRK
Procedure: Expression-vectors (pMECS) encoding the 27 putative human SIRPA binding VHHs were transformed to WK6 cells. VHHs (with a C-terminal HA and His-tag) were expressed in periplasmic extracts upon IPTG overnight stimulation and purified from the periplasmic extracts using the HisPur Cobalt Spin Plates (ThermoFisher) according to the manufacturer's guidelines. Purified VHHs were applied in a FACS binding-assay at 1 μg/ml: Hek293T cells were transiently transfected with a full length human SIRPA plasmid (pMET7 FLAG-hSIRPA) or an empty vector (MOCK). Two days after transfection, cells were resuspended and incubated with purified VHH in FACS buffer (PBS+0.5 mM EDTA+3% FBS). VHH binding was detected using a FITC-coupled anti-HA Ab (Genscript). Samples were acquired with a MACSQuant X instrument (Miltenyi Biotec) and analyzed using the FlowLogic software (Miltenyi Biotec).
Based on this initial binding-experiment and on the comparison of the 27 sequences, 5 VHHs (4 members of sequence group 1 which encompasses 26 sequences and 2HSI22 which is a unique representative of sequence group 2) were studied in more detail for binding to human SIRPA. Binding in FACS was measured as described above. In brief, hSIRPA or empty vector (MOCK) transfected cells were incubated with a serial dilution of purified VHH and binding detected using a FITC-coupled anti-HA Ab (GenScript). Data are summarized in FIG. 7 and illustrate concentration dependent specific binding to hSIRPA for all 5 VHHs.

Binder | binding result
B2 | binds
B14 | binds
B20 | binds
B22 | binds
B26 | binds
